Several values for one entry are separate records, joined by “and”; a condition that tells them apart may be missing. Equal values may be shown once. Read-outs that look alike come from different tables or passages of the source.
How the values were obtained:
Assay in all cases: cell-based or functional assay
[1] = target: protein S (purified, free form) (UniProt P07225)
[2] = target: protein S (purified, free form) (UniProt P07225); remark: listed apart in the source
[3] = target: tissue factor pathway inhibitor alpha (TFPIα) (UniProt P10646)
Chain of UniProt P10646 (P10646 29-304 limits assumed): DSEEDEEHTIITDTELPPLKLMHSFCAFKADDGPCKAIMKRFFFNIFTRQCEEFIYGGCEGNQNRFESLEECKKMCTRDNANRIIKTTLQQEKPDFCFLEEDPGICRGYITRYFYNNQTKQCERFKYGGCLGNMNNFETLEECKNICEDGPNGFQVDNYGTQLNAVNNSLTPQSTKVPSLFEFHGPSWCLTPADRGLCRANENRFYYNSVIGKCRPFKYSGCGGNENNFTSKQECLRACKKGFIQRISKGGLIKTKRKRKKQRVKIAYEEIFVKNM

| loss of the TFPIα-cofactor activity of protein S in the FXa inhibition assay (S2765 absorbance; 5 nM protein S, 2 nM FV-Short, 0.25 nM TFPIα, 0.3 nM FXa) [1] | loss of the TFPIα-cofactor activity of protein S in the FXa inhibition assay (S2765 absorbance; 5 nM protein S, 2 nM FV-Short, 0.25 nM TFPIα, 0.3 nM FXa) [2] | inhibition of FXa by TFPIα (S2765 absorbance) with phospholipid vesicles and 2 nM FV-Short, protein S titrated [3] | inhibition of FXa by TFPIα (S2765 absorbance) without added FV-Short [3] | Molecule |
| --- | --- | --- | --- | --- |
| 6.25 nM | 3.13 nM | – | – | C4b-binding protein (C4BP) without bound protein S (from UniProt P04003 49-597; P20851 18-252) |
| – | – | 1.25 nM and 5 nM | > 10 nM | protein S (purified, free form) (protein, UniProt P07225 42-676, looked up, contains the modified amino acid gamma-carboxy glutamic acid (positions not given)) ANSLLEETKQGNLERECIEELCNKEEAREVFENDPETDYFYPKYLVCLRSFQTGLFTAARQSTNAYPDLRSCVNAIPDQCSPLPCNEDGYMSCKDGKASFTCTCKPGWQGEKCEFDINECKDPSNINGGCSQICDNTPGSYHCSCKNGFVMLSNKKDCKDVDECSLKPSICGTAVCKNIPGDFECECPEGYRYNLKSKSCEDIDECSENMCAQLCVNYPGGYTCYCDGKKGFKLAQDQKSCEVVSVCLPLNLDTKYELLYLAEQFAGVVLYLKFRLPEISRFSAEFDFRTYDSEGVILYAESIDHSAWLLIALRGGKIEVQLKNEHTSKITTGGDVINNGLWNMVSVEELEHSISIKIAKEAVMDINKPGPLFKPENGLLETKVYFAGFPRKVESELIKPINPRLDGCIRSWNLMKQGASGIKEIIQEKQNKHCLVTVEKGSYYPGSGIAQFHIDYNNVSSAEGWHVNVTLNIRPSTGTGVMLALVSGNNTVPFAVSLVDSTSEKSQDILLSVENTVIYRIQALSLCSDQQSHLEFRVNRNNLELSTPLKIETISHEDLQRQLAVLDKAMKAKVATYLGGLPDVPFSATPVNAFYNGCMEVNINGVQLDLDEAISKHNDIRAHSCPSVWKKTKNS |
